One experiment concerns the target T1, 阴性对照蛋白BSA (UniProt P02769 25-607).
T1 construct: also called 对照BSA
As to the kind of experiment: single-phage ELISA, 100 ng/well coated protein.

The target in the next experiment is T2, 人4-1BB胞外区蛋白(hu4-1BB ECD) (human, UniProt Q07011 24-186).
T2 construct: extracellular domain; also called 人4-1BB蛋白; 抗原4-1BB
As to the kind of experiment: single-phage ELISA, 100 ng/well coated 4-1BB.

T1 sequence (P02769 25-607 limits assumed): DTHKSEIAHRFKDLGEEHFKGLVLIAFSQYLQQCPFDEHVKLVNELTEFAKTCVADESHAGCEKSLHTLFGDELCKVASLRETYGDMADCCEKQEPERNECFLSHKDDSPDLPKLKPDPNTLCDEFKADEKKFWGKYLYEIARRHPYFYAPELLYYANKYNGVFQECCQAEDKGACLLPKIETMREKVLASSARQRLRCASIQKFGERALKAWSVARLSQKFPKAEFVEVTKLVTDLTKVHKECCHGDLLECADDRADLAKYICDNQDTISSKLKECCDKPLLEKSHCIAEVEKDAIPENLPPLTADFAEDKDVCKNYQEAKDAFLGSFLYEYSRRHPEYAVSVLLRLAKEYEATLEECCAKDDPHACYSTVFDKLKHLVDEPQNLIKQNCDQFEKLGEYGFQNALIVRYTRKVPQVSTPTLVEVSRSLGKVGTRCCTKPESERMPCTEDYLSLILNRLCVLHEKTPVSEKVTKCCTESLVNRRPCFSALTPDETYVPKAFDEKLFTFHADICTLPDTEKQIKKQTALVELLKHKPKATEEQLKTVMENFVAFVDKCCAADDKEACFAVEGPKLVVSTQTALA

B1: 抗体(scFv)8F5 (scFv)
scFv: QVQLVQSGAEVKKPGASVKVSCKPSGYTFTSHYIHWVRQAPGQGLEWMGWINPNSGGTNYAQKFQGRVTMTRDTSISTAYMELSRLRSDDTAVYYCARDGGGMDVWGKGTMVTVSSGGGGSGGGGSGGGGSQSALTQPASVSGSPGQSITISCTGTSSDVGGYDFVSWYQHHPGKAPKLMIYGVANRPSGVSNRFSGSKSGNTASLTISGLQAEDDADYYCSSYSSTSTRYVFGTGTKVTVLG
For the molecule B1, the binding result is recorded as “no binding” with 阴性对照蛋白BSA and “binds” in the experiment with 人4-1BB胞外区蛋白(hu4-1BB ECD).

For the origin of these results see patent CN113621065A (WUHAN HSA BIND BIOTECHNOLOGY CO LTD, dated 2021).
